From US20190330277A1 (PIRBRIGHT INSTITUTE, published 2019)

B1: D25 antibody (antibody, V domains shown)
VH: QVQLVQSGAEVKKPGSSVMVSCQASGGPLRNYIINWLRQAPGQGPEWMGGIIPVLGTVHYAPKFQGRVTITADESTDTAYIHLISLRSEDTAMYYCATETALVVSTTYLPHYFDNWGQGTLVTVSS
VL: DIQMTQSPSSLSAAVGDRVTITCQASQDIVNYLNWYQQKPGKAPKLLIYVASNLETGVPSRFSGSGSGTDFSLTISSLQPEDVATYYCQQYDNLPLTFGGGTKVEIK
notes: also called mAb D25
B2: MPE8 antibody (antibody, V domains shown)
VH: EVQLVESGGGLVKPGGSLRLSCAASGFTFSSYSMNWVRQAPGKGLEWVSSISASSSYSDYADSAKGRFTISRDNAKTSLFLQMNSLRAEDTAIYFCARARATGYSSITPYFDIWGQGTLVTVSS
VL: QSVVTQTPSVSGAPGQRVTISCTGSSSNIGAGYDVHWYQQLPGTAPKLLIYDNNNRPSGVPDRFSASKSGTSASLAITGLQAEDEADYYCQSYDRNLSGVFGTGTKVTVL
notes: also called mAb MPE8

Assays:
391-2-DS-Cav1-BZGJ9 = target: T1, 391-2-DS-Cav1-BZGJ9; test: ELISA, variant from culture supernatant on Ni-NTA plate [continued]
T1 construct: also called sc-v47
Experimental: (§1) Initial assessment of all constructs were performed using a 96-well microplate format for high throughput expression followed by an ELISA-based antigenic evaluation as described previously 17. […] Plasmid DNA and TrueFect-Max (United BioSystems, MD) were mixed and added to the growing cells, and the 96-well plate incubated at 37° C., 5% CO2. One day post transfection, enriched medium (high glucose DMEM plus 25% ultra-low IgG fetal bovine serum, 2× nonessential amino acids, 1× glutamine) was added to each well, and the 96-well plate was returned to the incubator for continuous culture.

[1] = target: T2, sc9-10_DS-CAV1_bRSV(RB94)_Fd_fp1_ig1; test: as above
T2 construct: also called sc-v44
Experimental: as §1

391-2_DS-Cav1-tzsc2 = target: T3, 391-2_DS-Cav1-tzsc2; test: as above
T3 construct: also called sc-v57
Experimental: as §1

KXds2 = target: T4, KXds2; test: as above
T4 construct: also called sc-v50
Experimental: as §1

391-2-DS-Cav1-BZGJ9_gyc2 = target: T5, 391-2-DS-Cav1-BZGJ9_gyc2; test: as above
T5 construct: also called sc-v48
Experimental: as §1

391-2-DS-Cav1-SC-IP-1 = target: T6, 391-2-DS-Cav1-SC-IP-1; test: as above
T6 construct: also called sc-v49
Experimental: as §1

391-2_DS-Cav1-tzsc4 = target: T7, 391-2_DS-Cav1-tzsc4; test: as above
T7 construct: also called sc-v51
Experimental: as §1

391-2_DS-Cav1-tzsc6 = target: T8, 391-2_DS-Cav1-tzsc6; test: as above
T8 construct: also called sc-v58
Experimental: as §1

[2] = target: T9, sc9-10_DS-CAV1_bRSV(RB94)_Fd_(hRSV-leader)_ig1; test: as above
T9 construct: also called sc-v43
Experimental: as §1

391-2-DS-Cav1- F-SC_11R = target: T10, 391-2-DS-Cav1- F-SC_11R; test: as above
T10 construct: also called sc-v54
Experimental: as §1

391-2-DS-Cav1-BZGJ9_gyc5 = target: T11, 391-2-DS-Cav1-BZGJ9_gyc5; test: ELISA, variant from culture supernatant on Ni-NTA plate;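 also: antigenic evaluation by ELISA of constructs expressed at small scale in 96-well plates after transient plasmid transfection of cells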
T11 construct: also called sc-v10
Experimental: as §1

[3] = target: T12, RB94 site 0 hRSV DS-Cav1 Long FdPL; test: as above
T12 construct: also called sc-v22
Experimental: as §1

KXlinker1 = target: T13, KXlinker1; test: as above
T13 construct: also called sc-v30
Experimental: as §1

KXint1 = target: T14, KXint1; test: as above
T14 construct: also called sc-v29
Experimental: as §1

391-2-DS-Cav1-BZGJ9_gyc7 = target: T15, 391-2-DS-Cav1-BZGJ9_gyc7; test: as above
T15 construct: also called sc-v27
Experimental: as §1

[4] = target: T16, sc9-10_DS-CAV1_bRSV(RB94)_Fd_pm1_fp1_ig1; test: as above
T16 construct: also called sc-v15
Experimental: as §1

[5] = target: T17, sc9-10_DS-CAV1_bRSV(RB94)_Fd_pm1_ig1; test: as above
T17 construct: also called sc-v11
Experimental: as §1

[6] = target: T18, RB94 site 0 hRSV bovSurf DS-Cav1-BZGJ9 Long FdPL; test: as above
T18 construct: also called sc-v7
Experimental: as §1

[7] = target: T19, 391-2-DS-Cav1-BZGJ9 Long S190V; test: as above
T19 construct: also called sc-v23
Experimental: as §1

RB94 DS-Cav1 Long FdPL = target: T20, RB94 DS-Cav1 Long FdPL; test: as above
T20 construct: also called sc-v31
Experimental: as §1

391-2wt-F_SC_11R = test: as above
Experimental: as §1

[8] = target: T21, sc9-10_DS-CAV1_bRSV(RB94)_Fd_hp1_fp2_ig1; test: as above
T21 construct: also called sc-v13
Experimental: as §1

391-2_DS-Cav1-tzsc5 = target: T22, 391-2_DS-Cav1-tzsc5; test: as above
T22 construct: also called sc-v25
Experimental: as §1

[9] = target: T23, sc9-10_DS-CAV1_bRSV(RB94)_Fd_hp1_fp1_ig1; test: as above
T23 construct: also called sc-v8
Experimental: as §1

[10] = target: T24, sc9-10_DS-CAV1_bRSV(RB94)_Fd_hp1_ig1; test: as above
T24 construct: also called sc-v2
Experimental: as §1

[11] = target: T25, sc9-10_DS-CAV1_bRSV(RB94)_Fd_fp2_ig1; test: as above
T25 construct: also called sc-v34
Experimental: as §1

391-2-DSCav1- F-SC_7R = target: T26, 391-2-DSCav1- F-SC_7R; test: as above
T26 construct: also called sc-v36
Experimental: as §1

[12] = target: T27, sc9-10_DS-CAV1_bRSV(RB94)_Fd_pm1_fp2_ig1; test: as above
T27 construct: also called sc-v24
Experimental: as §1

[13] = target: T28, sc9-10_DS-CAV1_bRSV(RB94)_Fd_hp2_fp1_ig1; test: as above
T28 construct: also called sc-v5
Experimental: as §1

391-2_DS-Cav1-tzsc3 = target: T29, 391-2_DS-Cav1-tzsc3; test: as above
T29 construct: also called sc-v33
Experimental: as §1

391-2_DS-Cav1-tzsc7 = target: T30, 391-2_DS-Cav1-tzsc7; test: as above
T30 construct: also called sc-v21
Experimental: as §1

391-2-DS-Cav1-BZGJ9_gyc1 = target: T31, 391-2-DS-Cav1-BZGJ9_gyc1; test: as above
T31 construct: also called sc-v16
Experimental: as §1

| Binder | ELISA binding value (391-2-DS-Cav1-BZGJ9) | ELISA binding value [1] | ELISA binding value (391-2_DS-Cav1-tzsc2) | ELISA binding value (KXds2) | ELISA binding value (391-2-DS-Cav1-BZGJ9_gyc2) | ELISA binding value (391-2-DS-Cav1-SC-IP-1) | ELISA binding value (391-2_DS-Cav1-tzsc4) | ELISA binding value (391-2_DS-Cav1-tzsc6) | ELISA binding value [2] | ELISA binding value (391-2-DS-Cav1- F-SC_11R) | ELISA binding value (391-2-DS-Cav1-BZGJ9_gyc5) | ELISA binding value [3] | ELISA binding value (KXlinker1) | ELISA binding value (KXint1) | ELISA binding value (391-2-DS-Cav1-BZGJ9_gyc7) | ELISA binding value [4] | ELISA binding value [5] | ELISA binding value [6] | ELISA binding value [7] | ELISA binding value (RB94 DS-Cav1 Long FdPL) | other results |
| --- | --- | --- | --- | --- | --- | --- | --- | --- | --- | --- | --- | --- | --- | --- | --- | --- | --- | --- | --- | --- | --- |
| B1 | 0.183 | 0.191 | 0.0883 | 0.109 | 0.144 | 0.0985 | 0.138 | 0.138 | 0.197 | 0.161 | 1.93 | 1.02 | 0.399 | 0.416 | 0.732 | 1.67 | 1.86 | 2.21 | 1.13 | 0.392 | ELISA binding value (391-2wt-F_SC_11R): 0.739; ELISA binding value [8]: 1.88; ELISA binding value (391-2_DS-Cav1-tzsc5): 0.662; ELISA binding value [9]: 2.17; ELISA binding value [10]: 2.44; ELISA binding value [11]: 0.299; ELISA binding value (391-2-DSCav1- F-SC_7R): 0.225; ELISA binding value [12]: 1.01; ELISA binding value [13]: 2.17; ELISA binding value (391-2_DS-Cav1-tzsc3): 0.383; ELISA binding value (391-2_DS-Cav1-tzsc7): 0.997; ELISA binding value (391-2-DS-Cav1-BZGJ9_gyc1): 1.4 |
| B2 | 0.0926 | 0.0965 | 0.109 | 0.143 | 0.12 | 0.155 | 0.096 | 0.0583 | 0.105 | 0.0668 | 1.8 | 1.39 | 0.544 | 0.599 | 0.821 | 1.73 | 1.87 | 2.14 | 1.19 | 0.489 | ELISA binding value (391-2wt-F_SC_11R): 0.887; ELISA binding value [8]: 1.81; ELISA binding value (391-2_DS-Cav1-tzsc5): 1.22; ELISA binding value [9]: 2.16; ELISA binding value [10]: 2.18; ELISA binding value [11]: 0.464; ELISA binding value (391-2-DSCav1- F-SC_7R): 0.312; ELISA binding value [12]: 0.973; ELISA binding value [13]: 2.25; ELISA binding value (391-2_DS-Cav1-tzsc3): 0.433; ELISA binding value (391-2_DS-Cav1-tzsc7): 1.5; ELISA binding value (391-2-DS-Cav1-BZGJ9_gyc1): 1.55 |
